Experimental findings from patent US20230137032A1 (GlaxoSmithKline, published 2023) are described below.

“And” between values parts separate entries of the source, which are not always exact repeats. Equal values may be shown once.

What is called EC50 (read off the curve) is the concentration needed to bring the measured effect to its halfway point. Low values mean higher potency in that assay, high ones lower potency in that assay. By Kd is commonly meant the equilibrium constant for the complex coming apart. By EC50 is commonly meant the midpoint of the concentration-response curve.

The target of experiment [1] is T1, human BCMA expressed on cells (human, UniProt Q02223 1-184).
T1 sequence (looked up): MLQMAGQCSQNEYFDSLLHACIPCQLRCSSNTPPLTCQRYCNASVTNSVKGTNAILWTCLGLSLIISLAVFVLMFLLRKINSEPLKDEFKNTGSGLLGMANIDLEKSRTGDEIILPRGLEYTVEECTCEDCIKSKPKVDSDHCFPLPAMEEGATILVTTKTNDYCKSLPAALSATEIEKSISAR
Nature of the experiment: cell-based or functional assay.

The target of experiment [2] is T1, human BCMA expressed on cells. Nature of the experiment: FACS on U266 cells, PE anti-human IgG, MFI. As to the method: (§1) Cells were then washed with FACS buffer (PBS+0.5% BSA+0.1% sodium azide) to remove unbound antibody. Cells were incubated with a secondary PE labelled anti-human IgG antibody for 15 minutes at RT and then washed with FACS buffer to remove unbound antibody. Cells were analysed by FACS and mean fluorescence intensity (MFI) values measured to determine binding.

Experiment [3] concerns the target T2, recombinant human BCMA, commercial (US Biological, B0410) (human, UniProt Q02223 5-54, limits assumed).
T2 construct: also called commercial human BCMA; Human commercial BCMA
T2 chain (looked up): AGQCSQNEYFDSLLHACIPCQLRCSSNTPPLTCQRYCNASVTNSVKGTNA
Nature of the experiment: Biacore T100, antibody captured on Protein A, 37C.

For experiment [4], the target named is T3, recombinant cyno BCMA, in house material (cyno, UniProt A0A2K5UD97 4-52).
T3 construct: also called Cyno in house BCMA
Nature of the experiment: Biacore T100, antibody captured on Protein A, 37C.

Experiment [5] has as its target T1, human BCMA expressed on cells. Nature of the experiment: FACS on JJN-3 cells, PE anti-human IgG, MFI. On the procedure: as §1
A further experiment deals with T4, cyno BCMA-Fc (cyno).
T4 construct: also called Cyno BCMA CD33 cyno BCMA ECD (4-52) TEV-Fc; recombinant cyno BCMA
Nature of the experiment: ELISA on coated cyno BCMA-Fc, anti-human IgG HRP, TMB. On the procedure: Human BCMA-Fc and cyno BCMA-Fc were coated to ELISA plates and the plates were blocked using BSA to reduce non specific binding. CA8 chimeric antibodies were added in a concentration range from 5 ug/ml to 0.1 ug/ml to the human and cyno BCMA coated ELISA plates. […] HRP substrate (TMB) was added to develop the ELISA.
(In an ELISA, binding on a coated surface is turned into a signal by an enzyme label.)

Experiment [6] deals with T2, recombinant human BCMA, commercial (US …). Nature of the experiment: Biacore T100, antibody captured on Protein A, 25C, experiment 1. On the procedure:
(§2) Protein A was immobilised on a CMS chip (GE Healthcare, Cat No: BR-1005-30) by primary amine coupling and this surface was then used to capture the antibody molecules. Recombinant human BCMA (US Biological, B0410) was used as analyte at 256 nM, 64 nM, 16 nM, 4 nM and 1 nM. Regeneration of the capture surface was carried out using 50 mM NaOH. All binding curves were double referenced with a buffer injection (i.e. 0 nM) the data was fitted to the using the 1:1 model inherent to T100 evaluation software. The run was carried out at 25° C. and 37° C. for experiment 1 and only 37° C. for experiment 2 using HBS-EP as the running buffer.
Background: In SPR one partner is held on a chip, and binding of the other changes the refractive index at the surface.

Experiment [7] has the same target. Nature of the experiment: Biacore T100, antibody captured on Protein A, 37C, experiment 2. As to the method:
as §2

Experiment [8] has as its target T5, recombinant human BCMA, in house material (human, UniProt Q02223 4-53, limits assumed).
T5 construct: also called Human in house BCMA; In house human BCMA
Nature of the experiment: ProteOn SPR run 1, antibody captured on Protein A, 25C; Run 1 (Table 8). As to the method: (§3) The initial screen of CA8 chimeric and humanised variants was carried out on the ProteOn XPR36 (Biorad). The method was as follows; Protein A was immobilised on a GLC chip (Biorad, Cat No: 176-5011) by primary amine coupling, CA8 variants were then captured on this surface and recombinant human BCMA (in house or commercial US Biological, B0410) materials (run 2 only)) passed over at 256, 64, 16, 4, 1 nM with a 0 nM injection (i.e. buffer alone) used to double reference the binding curves, the buffer used is the HBS-EP buffer. 50 mM NaOH was used to regenerate the capture surface. The data was fitted to the 1:1 model using the analysis software inherent to the ProteOn XPR36. […] Both runs were carried out at 25° C.

The target in experiment [9] is T5, recombinant human BCMA, in house …. Nature of the experiment: ProteOn SPR run 2, antibody captured on Protein A, 25C; Run 2 (Table 9). On the procedure: as §3
The target of experiment [10] is T6, recombinant human BCMA Fc 4-53 (human).
T6 construct: also called Human BCMA CD33-hBCMA ECD (4-53) TEV-Fc; recombinant BCMA
Nature of the experiment: ELISA, neutralisation of ligand binding to plate-coated BCMA Fc 4-53; competitor BAFF; competitor BAFF. As to the method:
96 well flat bottomed plates were coated overnight with 1 μg/mL solution of recombinant human BCMA Fc 4-53 in PBS. Following a wash step using 0.05% TWEEN20, plates were blocked with 2% Bovine Serum Albumin solution in PBS for 1 hour at room temperature. […] 40 μL of 2% BSA was added to the relevant control wells. […] Equivalent volume of 2% BSA was added to the relevant control wells. Plates were allowed to incubate for 2 hours at room temperature, after which they were washed as before. […] Following a wash step, 50 µL of a 1:4000 dilution of Streptavidin-HRP (Amersham RPN4401) was added to each well and incubated for 30 minutes at room temperature. The wash process was repeated again followed by the addition of […] of Tetramethylbenzidine substrate solution (T8665, Sigma) into each well. Plates were incubated for 20-25 minutes at room temperature, wrapped in foil. The reaction was stopped with the addition of […] of 1M H₂SO₄. Optical density was determined at 450 nm using Spectromax reader.

Experiment [11] addresses T1, human BCMA expressed on cells. Nature of the experiment: FMAT cell binding on HEK293 cells transfected with human BCMA, anti-human IgG FMAT Blue detection. On the procedure:
Cryopreserved transfected human, cyno BCMA and mock transfected HEK293 cells were recovered from LN2 storage. […] The assay plates were left for a minimum of 90 minutes before the result was read on the ABI8200 (FMAT) plate reader.

B1: CA8 chimera antibody (human chimeric CA8) (antibody, V domains shown)
VH: EVQLQQSGAVLARPGASVKMSCKGSGYTFTNYWMHWVKQRPGQGLEWIGATYRGHSDTYYNQKFKGKAKLTAVTSTSTAYMELSSLTNEDSAVYYCTRGAIYNGYDVLDNWGQGTLVTVSS
VL: DIQLTQTTSSLSASLGDRVTISCSASQDISNYLNWYQQKPDGTVELVIYYTSNLHSGVPSRFSGSGSGTDYSLTIGYLEPEDVATYYCQQYRKLPWTFGGGSKLEIKR
notes: also called Chimera CA8; CA8 chimeric antibody
On to B1, for which, in experiment [1], the “APRIL induced IC50 (phosphorylated NFkappaB in H-929 cells, MSD assay)” value is 38.5 ug/ml and 257 nM. Besides, the “BAFF induced IC50 (phosphorylated NFkappaB in H-929 cells, MSD assay)” value in [1] was 1.5 ug/ml and 10 nM. Further, the “EC50 (read off the curve)” value is ~0.3 µg/mL in [2], ~0.2 µg/mL in experiment [5] and ~0.4 µg/mL in [11]. Also, the Kd was 0.036 nM in [3]; 0.305 nM in experiment [4]; 0.14 nM in [6]; 0.055 nM in experiment [7]; 0.519 nM in experiment [8]; 0.412 nM in [9]. For the same molecule, in the experiment with cyno BCMA-Fc, the binding result is “binds”. In addition, the half-maximal effective concentration (EC50) in experiment [10] came to 0.695 µg/mL.
